Data on four substances can be found in article PMC3724804.

Test [1] has as its target human cytoplasmic β-actin (human) (UniProt P60709).
Test [2] concerns the target skeletal muscle α-actin (rabbit) (UniProt P68135).
Test [3] has as its target human cytoplasmic γ-actin (human) (UniProt P63261).
Test [4] deals with human cytoplasmic β-actin (human) (UniProt P60709). This is another data set of the same source.
In test [5] the target is skeletal muscle α-actin (rabbit) (UniProt P68135). This is another data set of the same source.
Test [6] addresses human cytoplasmic γ-actin (human) (UniProt P63261). This is another data set of the same source.
For test [7] the target is unchanged. This is another data set of the same source.

Turning to “human nonmuscle myosin-2B motor domain (residues 1–782) fused with two Dictyostelium discoideum α-actinin repeats (from UniProt P35580 1-782) (domain or fragment)”, the figures for the K (app,actin): F-actin concentration for half-maximal activation of steady-state ATPase (NADH-coupled assay, 25°C) in test [1], in test [2] and in test [3] were 95.1 µM, 82 µM and 86.9 µM, respectively. For the same substance, the results for the kcat of actin-activated steady-state ATPase in test [1], in test [2] and in test [3] were 0.67 s⁻¹, 0.15 s⁻¹ and 0.63 s⁻¹, respectively. The Motility rate: sliding velocity of tropomyosin-decorated F-actin in the in vitro motility assay, 30°C in test [4] was 35.2 nm/s; in test [5] it was 30.1 nm/s; in test [6] it was 32.7 nm/s. The substance further had an ATP turnover in the flash photolysis experiment (5 µM F-actin), relative to α-actin in test [7] of 3 fold.

Regarding “human myosin-7A motor domain construct (amino acids 1–747) fused with the artificial lever arm and EYFP (from UniProt Q13402 1-747) (domain or fragment)”, the K (app,actin): F-actin concentration for half-maximal activation of steady-state ATPase (NADH-coupled assay, 25°C) in test [1] was 12.3 µM; in test [2] it was 12.3 µM; in test [3] it was 11.3 µM. The kcat of actin-activated steady-state ATPase in test [1] was 0.53 s⁻¹; in test [2], 0.35 s⁻¹; in test [3], 0.75 s⁻¹.

“human nonmuscle myosin-2C1 splice variant motor domain (residues 1–807) fused with two Dictyostelium discoideum α-actinin repeats (domain or fragment)”: the K (app,actin): F-actin concentration for half-maximal activation of steady-state ATPase (NADH-coupled assay, 25°C) in test [1], in test [2] and in test [3] was greater than 100 µM each time. Also, the kcat of actin-activated steady-state ATPase (activity in the presence of 100 µM F-actin) was determined as 0.53 s⁻¹ in test [1], 0.17 s⁻¹ in test [2] and 0.36 s⁻¹ in test [3]. Besides, the Motility rate: sliding velocity of tropomyosin-decorated F-actin in the in vitro motility assay, 30°C was found to be 60.9 nm/s in test [4], 51.7 nm/s in test [5] and 61.2 nm/s in test [6].

Regarding “human nonmuscle myosin-2A motor domain (residues 1–775) fused with two Dictyostelium discoideum α-actinin repeats (from UniProt P35579 1-775) (domain or fragment)”, the K (app,actin): F-actin concentration for half-maximal activation of steady-state ATPase (NADH-coupled assay, 25°C) in test [1] is 94.6 µM; in test [2], 80.2 µM; in test [3] it was 88 µM. Moreover, the kcat of actin-activated steady-state ATPase in test [1] was 0.81 s⁻¹; in test [2], 0.18 s⁻¹; in test [3], 0.77 s⁻¹. The values for the Motility rate: sliding velocity of tropomyosin-decorated F-actin in the in vitro motility assay, 30°C in test [4], in test [5] and in test [6] were 84.2 nm/s, 76.3 nm/s and 94.6 nm/s, respectively.
